In experiment [1] the target is T1, human Dectin-1 isoform A on HEK-Blue hDectin-1a cells (human, UniProt Q9BXN2 1-247).
T1 sequence: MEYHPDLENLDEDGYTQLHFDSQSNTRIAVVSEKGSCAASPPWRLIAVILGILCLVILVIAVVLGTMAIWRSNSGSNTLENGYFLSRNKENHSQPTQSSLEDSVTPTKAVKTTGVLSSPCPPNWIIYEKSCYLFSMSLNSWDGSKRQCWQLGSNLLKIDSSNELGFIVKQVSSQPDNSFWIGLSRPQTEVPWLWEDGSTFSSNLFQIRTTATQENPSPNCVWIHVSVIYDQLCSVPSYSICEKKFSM
The experiment can be described thus: cell-based or functional assay.

Experiment [2] concerns the target T2, human Trop-2 expressed on cells (A-431, NCI-N87, SKBR3, CHO-K1-hTrop2) (human, UniProt P09758 27-323).
T2 sequence: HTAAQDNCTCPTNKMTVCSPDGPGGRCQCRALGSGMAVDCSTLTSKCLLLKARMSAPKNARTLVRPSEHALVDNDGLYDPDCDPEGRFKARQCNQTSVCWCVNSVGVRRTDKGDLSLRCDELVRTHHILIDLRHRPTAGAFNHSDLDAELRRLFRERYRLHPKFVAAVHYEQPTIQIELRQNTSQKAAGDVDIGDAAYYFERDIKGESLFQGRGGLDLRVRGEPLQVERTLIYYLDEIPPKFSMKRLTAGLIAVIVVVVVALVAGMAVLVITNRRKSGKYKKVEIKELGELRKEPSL
Put plainly: cell-based or functional assay.

For experiment [3], the target named is T2, human Trop-2 expressed on cells (A-431, …). Put plainly: flow cytometry on A-431 cells, fluorescent anti-human secondary antibody. As to the method:
(§1) FIGS. 2A-2D show binding assays in which cells expressing human Trop-2 were incubated with anti-Dectin-1 x anti-Trop-2 bispecific antibodies with human IgG1 Fc (as indicated) or isotype control, and binding was measured by flow cytometry using a fluorescently labeled anti-human secondary antibody. Shown are binding of the indicated antibodies to human epidermoid carcinoma A-431 cells (FIG. 2A), human gastric carcinoma NCI-N87 cells (FIG. 2B), human breast cancer SKBR3 cells (FIG. 2C), or CHO-K1 cells expressing human Trop-2 (FIG. 2D).
(§2) Human cancer cell lines and CHO cells expressing human Trop-2 (CHO-K1-hTrop2 cells) were incubated with the anti-Dectin-1 x anti-Trop-2 bispecific antibodies, Trop-2 clones 15, 45, 76, 77, 63, 64, 65 and 123, or the hIgG1 isotype, followed by a fluorescent anti-human secondary antibody. The primary antibodies were used in an 8-point serial dose titration starting at 300 or 100 nM and diluted 1 to 3.

Experiment [4] shares this target. The experiment can be described thus: flow cytometry on SKBR3 cells, fluorescent anti-human secondary antibody. As to the method: as §1, §2
Experiment [5] has the same target. The experiment can be described thus: flow cytometry on NCI-N87 cells, fluorescent anti-human secondary antibody. As to the method:
as §1, §2
In general terms: In flow cytometry, cells or beads pass a laser one at a time.

For experiment [6] the target is unchanged. Put plainly: flow cytometry on CHO-K1-hTrop2 cells, fluorescent anti-human secondary antibody. As to the method: as §1, §2
A further experiment concerns the target T3, Human Trop-2 ECD protein (human, UniProt P09758 27-274).
T3 construct: also called hTrop-2 ECD; not shown: HIS tag (captured on the biosensor via anti-HIS Tag)
T3 sequence: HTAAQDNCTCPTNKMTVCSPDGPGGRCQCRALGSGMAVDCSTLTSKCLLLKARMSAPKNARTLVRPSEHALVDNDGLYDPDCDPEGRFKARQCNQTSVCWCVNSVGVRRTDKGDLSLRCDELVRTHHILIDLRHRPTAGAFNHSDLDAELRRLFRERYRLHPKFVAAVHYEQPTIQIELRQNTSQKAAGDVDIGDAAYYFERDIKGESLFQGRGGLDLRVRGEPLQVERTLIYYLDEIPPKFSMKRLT
Put plainly: BLI, hTrop-2 ECD captured via anti-HIS Tag, bispecific antibody in solution (monovalent). As to the method:
Monovalent binding affinity was measured by biosensor (BLI). Human Trop-2 ECD protein was captured on biosensor via anti-HIS Tag. On and off rate binding was measured against bispecific antibodies with 1 arm binding to hTrop2 at varying concentrations. On rate and off rate measurements were fitted to generated KD values.
Monovalent binding affinity of each anti-Dectin-1 x anti-Trop-2 bispecific antibody to the human Trop-2 ECD was also measured by biosensor (BLI).

B1: 2M24 × Trop-2 clone C hG1 (bispecific antibody, V domains shown)
VH 1: QVQLVQSGAEVKKPGASVKVSCKSSGYTFTDYYIHWVRQAPGQGLEWMGWINPNSGDTNYAQKFQGRITMTRDTSISTAYLELSRLRSDDTAVFYCARNSGSYSFGYWGQGTLVTVSS
VL 1: DIQMTQSPSSVSASVGDRVTITCRASQGISSWLAWYQQKPGKAPKLLIFGASSLQSGVPSRFSGSGSGTDFTLTVSSLQPEDFATYYCQQAYSFPFTFGPGTKVDIE
VH 2: QVQLVQSGSELKKPGASVKLSCKASGYTFTSYGMNWVRQAPGQGLEWMGWINTNTGNPTYAQGFTGRFVFSLDTSVSTAYLQISSLKAEDTAVYYCARGYNWNDGDFDYWGQGTLVTVSS
VL 2: AIQMTQSPSSLSPSVGDRVTITCRASQGIRNDLGWYQQKPGKAPKLLIFAASSLQSGVPSRFSGSGSGTDFTLTISNLQPEDFATYYCLQNYNYPLTFGGGTKVEIK
notes: Full chains appear only in embodiments and are not tied to the tested molecule; also called anti-Dectin-1 x anti-Trop-2 bispecific antibody; DR02B.77
Regarding B1, in experiment [1], the “Dectin-1 pathway activation (SEAP secretion), HEK-Blue hDectin-1a cells in the presence of A-431 cells, EC50” value was 0.08 µg/mL; the “Dectin-1 pathway activation (SEAP secretion), HEK-Blue hDectin-1a cells in the presence of CHO-K1-hTrop2 cells, EC50” value is 0.05 µg/mL; the “Dectin-1 pathway activation (SEAP secretion), HEK-Blue hDectin-1a cells in the presence of NCI-N87 cells, EC50” value stood at 0.06 µg/mL; the “Dectin-1 pathway activation (SEAP secretion), HEK-Blue hDectin-1a cells in the presence of SKBR3 cells, EC50” value worked out at 0.05 µg/mL. Also, in experiment [2], the “Induction of phagocytosis in vitro of A-431 cells by human macrophages, EC50” value was determined as 0.45 nM; the “Induction of phagocytosis in vitro of NCI-N87 cells by human macrophages, EC50” value amounted to 0.132 nM; the “Induction of phagocytosis in vitro of SKBR3 cells by human macrophages, EC50” value was determined as 0.319 nM. The EC50 in experiment [3] is 53.2 nM. Also, the EC50 in experiment [4] was determined as 28 nM. This molecule showed an EC50 in experiment [5] of 39.5 nM. This molecule gave an EC50 in experiment [6] of 7.25 nM. In the experiment with Human Trop-2 ECD protein, binding was characterised by a dissociation constant (Kd) of 12.9 nM, the koff worked out at 0.00181 s⁻¹ and the kon worked out at 140000 M⁻¹ s⁻¹.

B2: 2M24 × Trop-2 clone B hG1 (bispecific antibody, V domains shown)
VH 1: QVQLVQSGAEVKKPGASVKVSCKSSGYTFTDYYIHWVRQAPGQGLEWMGWINPNSGDTNYAQKFQGRITMTRDTSISTAYLELSRLRSDDTAVFYCARNSGSYSFGYWGQGTLVTVSS
VL 1: DIQMTQSPSSVSASVGDRVTITCRASQGISSWLAWYQQKPGKAPKLLIFGASSLQSGVPSRFSGSGSGTDFTLTVSSLQPEDFATYYCQQAYSFPFTFGPGTKVDIE
VH 2: QVQLQESGPGLVKPSGTLSLTCAVSGGSISSSNWWSWVRQPPGKGLEWIGEIYHDGSTDYFPSLKSRVTISVDKSKNQFSLKLSSVTAADTAVYYCARDNWGFDYWGQGTLVTVSS
VL 2: DIVLTQSPGTLSLSPGERATLSCRASQSVSSSYLAWYQQKPGQAPRLLISGASSRATGIPDRFSGSGSGTDFTLTISRLEPEDFAVYYCQQYGSSHRTFGQGTKVEIK
notes: Full chains appear only in embodiments and are not tied to the tested molecule; also called anti-Dectin-1 x anti-Trop-2 bispecific antibody; DR02B.65
Consider B2, for which, in experiment [1], the “Dectin-1 pathway activation (SEAP secretion), HEK-Blue hDectin-1a cells in the presence of A-431 cells, EC50” value turned out to be 0.04 µg/mL; the “Dectin-1 pathway activation (SEAP secretion), HEK-Blue hDectin-1a cells in the presence of CHO-K1-hTrop2 cells, EC50” value stood at 0.07 µg/mL; the “Dectin-1 pathway activation (SEAP secretion), HEK-Blue hDectin-1a cells in the presence of NCI-N87 cells, EC50” value turned out to be 0.03 µg/mL; the “Dectin-1 pathway activation (SEAP secretion), HEK-Blue hDectin-1a cells in the presence of SKBR3 cells, EC50” value is 0.04 µg/mL. Also, in experiment [2], the “Induction of phagocytosis in vitro of A-431 cells by human macrophages, EC50” value was determined as 0.34 nM; the “Induction of phagocytosis in vitro of NCI-N87 cells by human macrophages, EC50” value amounted to 1.12 nM; the “Induction of phagocytosis in vitro of SKBR3 cells by human macrophages, EC50” value was found to be 0.269 nM. In addition, in experiment [3], the EC50 amounted to 7.56 nM. The molecule also came in with an EC50 in experiment [4] of 24.2 nM. In experiment [5], this molecule showed an EC50 of 17.9 nM. In experiment [6], the EC50 amounted to 4.32 nM. In the experiment with Human Trop-2 ECD protein, this molecule displayed a dissociation constant (Kd) of 9.55 nM, a koff of 0.000475 s⁻¹ and a kon of 49700 M⁻¹ s⁻¹.

As usually defined, the EC50 is the concentration needed to bring the measured effect to its halfway point. Higher therefore signals lower potency in that assay. In general, Kd refers to the free concentration of one partner at which half of the binding sites on the other are occupied at equilibrium, for simple one-to-one binding. By koff is commonly meant the rate constant with which the complex falls apart. A high value points to a short-lived complex. Usually kon stands for the rate constant with which the complex forms. A lower kon goes with slow association.

(Values after US20260146093A1 (DREN BIO MANAGEMENT, published 2026).)
